Measured values taken from the supplement of paper PMC11780869.

Test system: Bacillus subtilis
Experiment: cleaved RNA product abundance (RNA/gDNA barcode ratio) relative to median wild-type variant (ratio to wild type); higher = more accumulation of the downstream cleavage product
Summary of the method: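 Oligos with a 9% error rate were used to build barcoded, mutagenized RNase Y cleavage-site windows within truncated aprE or tetM reporter mRNAs, which were integrated into the B. subtilis chromosome. Cultures were grown in LB at 37°C between OD600 0.0003 and 0.3. Cleaved RNA was gel-selected, reverse transcribed and barcode-sequenced, as were genomic DNA barcodes, and UMIs were collapsed. Cleaved product abundance is the scaled RNA:gDNA barcode ratio, with the median construct carrying the unmutated site as reference.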

[1] = experiment (reporter, strain, medium): exp 8a: truncated aprE reporter, strain BJT201 with 2% xylose (RNase J1 expressed), cleavage site: glnRA (positions -5 to +31 mutated)
[2] = experiment (reporter, strain, medium): exp 2b: truncated aprE reporter, strain BJT200, cleavage site: cggR-gapA (positions -7 to +36 mutated)
[3] = experiment (reporter, strain, medium): exp 4a: truncated aprE reporter, strain BJT201 with 2% xylose (RNase J1 expressed), cleavage site: cggR-gapA (positions -7 to +36 mutated)
[4] = experiment (reporter, strain, medium): exp 6: tetM reporter, strain 168, cleavage site: cggR-gapA (positions -7 to +36 mutated)

Row | Sequence | cleaved RNA product abundance [1] | cleaved RNA product abundance [3] | other results
1 | CGACATGTCCCGCTTCTTTCATTAATCCGTTAGCAACTGTTTGGCAATATACATTTACCTTTTAAGAGGAGGAAT | 0.499 |  | 
2 | CGACATGTCCCGCTTCTTTCATTAAGCCGTAAGCAACTGTTTTGCTATATACATTTACCTTTTAAGAGGAGGAAT | 0.519 |  | 
3 | ACAGACGAAGGAGCCGCAAAGAAGTTAATAAGGGATGAATAATCCCTCAATATAAATATCTCTCACTTATTTAAA |  | 0.349 | cleaved RNA product abundance [2]: 0.264; cleaved RNA product abundance [4]: 0.555
4 | CGACATGTCCCGCTTCTTTCATTAATCCGTTAACAACTGTTTTGCTATATACATTTAGCTTTTAAGAGGAGGAAT | 0.204 |  | 
5 | ACAGACGAAGGAGCCGCACAGAAGTTAATAAGGGATGAATAATCCCTCAATATAAATATCTCTCACTTATTTAAA |  | 0.309 | 
6 | ACAGACGAAGGAGCCGCAAAGAAGTTATTAAGGGATGAATAATCCCTAAATACAAATATCTCTCACTTATTTAAA |  | 0.0687 | 
7 | ACAGACGAAGGAGCCGCAAAGAAGTTATTAAGGGTTGAATAATCCCTCAATATATATATCTCTCACTTATTTAAA |  | 0.371 | 
8 | ACAGACGAAGGAGCCGCAAAGAAGGTATTAAGGGATGAATAATCCCTTAATATAAATATCTCTCACTTATTTAAA |  | 0.326 | 
9 | CGACATGTCCCGCTTCTTTCATTAATCCGTTAGCTACTGTTATGCTATATACATTTACCTTTTAAGAGGAGGAAT | 0.786 |  | 
10 | CGACATGTCCCGCTTCTTTCATTAGTCCGTTAGTAACTGTTTTGCTATATACATTTACCTTTTAAGAGGAGGAAT | 0.335 |  | 
11 | CGACATGTCCCGCTTCTTTCATTAATCAGTTAGCAACTGTGTTGCTATATACATTTACCTTTTAAGAGGAGGAAT | 0.251 |  | 
12 | ACAGACGAAGGAGCCGCAAAGAAGTTATTAAGGCATGAACAATCCCTCAATATAAATATCTCTCACTTATTTAAA |  | 0.0684 | 
13 | CGACATGTCCCGCTTCTTTCATTAATACGTTAGCAACTGATTTGCTATATACATTTACCTTTTAAGAGGAGGAAT | 1.24 |  | 
14 | ACAGACGAAGGAGCCGCAAAGAAGTTATTAAGGGATGAATAATCCCTTAATAAAAATATCTCTCACTTATTTAAA |  |  | cleaved RNA product abundance [4]: 0.227
15 | CGACATGTCCCGCTTCTTTCATTAATCCGTTAGTAACTGTTGTGCTATATACATTTACCTTTTAAGAGGAGGAAT | 0.358 |  | 
16 | CGACATGTCCCGCTTCTTTCATTAATCCGTTAGCAACAGTTTTGATATATACATTTACCTTTTAAGAGGAGGAAT | 0.429 |  | 
17 | ACAGACGAAGGAGCCGCAAAGAAGTTATTATGGGATGAATAATCCCTCAATATACATATCTCTCACTTATTTAAA |  | 0.538 | 
18 | ACAGACGAAGGAGCCGCGAAGAAGTTATTAAGGGATGAATAATCGCTCAATATAAATATCTCTCACTTATTTAAA |  | 0.134 | 
19 | ACAGACGAAGGAGCCGCAAAGAAGTTATTAAGGGATGAATCATGCCTCAATATAAATATCTCTCACTTATTTAAA |  | 0.251 | cleaved RNA product abundance [2]: 0.164
20 | CGACATGTCCCGCTTCTTTCATTAATCCGTTAGGAACTGTTTTGCTATATACATTTACTTTTTAAGAGGAGGAAT | 0.247 |  | 
21 | CGACATGTCCCGCTTCTTTCATTACTCCGTTAGCAACTGTTTTGCTATATACTTTTACCTTTTAAGAGGAGGAAT | 0.592 |  | 

Row | Sequence | cleaved RNA product abundance [1] | cleaved RNA product abundance [3] | other results
22 | ACAGACGAAGGAGCCGCAAAGTAGTTATTAAGGGATGAATATTCCCTCAATATAAATATCTCTCACTTATTTAAA |  |  | cleaved RNA product abundance [2]: 0.716
23 | CGACATGTCCCGCTTCTTTCATTAATCTGTTAGCAACTGTTTTACTATATACATTTACCTTTTAAGAGGAGGAAT | 0.541 |  | 
24 | ACAGACGAAGGAGCCGCAAAGAAGTTGTTAAGGGATGAATAATCACTCAATATAAATATCTCTCACTTATTTAAA |  | 0.0768 | 
25 | ACAGACGAAGGAGCCGCAAACAAGTTATTAAGGGATGAATAAACCCTCAATATAAATATCTCTCACTTATTTAAA |  | 0.38 | cleaved RNA product abundance [2]: 0.29
26 | ACAGACGAAGGAGCCGCAAAGAAATTATTAAGGGATGAATAACCCCTCAATATAAATATCTCTCACTTATTTAAA |  | 0.671 | 
27 | ACAGACGAAGGAGCCGCAAAGAAGTTATTAAGGGATGTATAATCCCTCAATATAAAAATCTCTCACTTATTTAAA |  | 0.439 | 
28 | CGACATGTCCCGCTTCTTTCATTAATACTTTAGCAACTGTTTTGCTATATACATTTACCTTTTAAGAGGAGGAAT | 0.611 |  | 
29 | CGACATGTCCCGCTTCTTTCATTAATCCATTAGCAACTGTTTTGCTATATACATTCACCTTTTAAGAGGAGGAAT | 0.276 |  | 
30 | ACAGACGAAGGAGCCGCATAGAAGTTATTAAGGGATGAATAACCCCTCAATATAAATATCTCTCACTTATTTAAA |  |  | cleaved RNA product abundance [2]: 0.457
31 | ACAGACGAAGGAGCCGCAAAGAAGTAATTAAGGGATTAATAATCCCTCAATATAAATATCTCTCACTTATTTAAA |  | 0.379 | 
32 | ACAGACGAAGGAGCCGCAAAGAAGTTATTAAGGGAGGAATAATCTCTCAATATAAATATCTCTCACTTATTTAAA |  | 0.198 | 
33 | CGACATGTCCCGCTTCTTTCATTAATCCGTAACCAACTGTTTTGCTATATACATTTACCTTTTAAGAGGAGGAAT | 0.187 |  | 
34 | CGACATGTCCCGCTTCTTTCATTAATCCGTTAGCAACTGTTTTGCTATATACATATATCTTTTAAGAGGAGGAAT | 1.06 |  | 
35 | CGACATGTCCCGCTTCTTTCATTAATCCGTTAGCAACTTTTTTGCTATAAACATTTACCTTTTAAGAGGAGGAAT | 1.58 |  | 
36 | CGACATGTCCCGCTTCTTTCATTAATACGTTAGCAACTGTTTTGCTATATACATTTACCATTTAAGAGGAGGAAT | 0.353 |  | 
37 | CGACATGTCCCGCTTCTTTCATTAATCAGGTAGCAACTGTTTTGCTATATACATTTACCTTTTAAGAGGAGGAAT | 0.783 |  | 
38 | ACAGACGAAGGAGCCGCAAAGAAGTTATTAAAGGATCAATAATCCCTCAATATAAATATCTCTCACTTATTTAAA |  | 0.115 | 
39 | ACAGACGAAGGAGCCGCAAAGAAGTTATTAAGGGATCAATAATCCCTTAATATAAATATCTCTCACTTATTTAAA |  | 0.486 | cleaved RNA product abundance [2]: 1.02
40 | ACAGACGAAGGAGCCGCAAAGAAGTTATTAAGCGATGAATAATCCCTCAATAAAAATATCTCTCACTTATTTAAA |  | 0.0528 | 
41 | ACAGACGAAGGAGCCGCAAAGAAGTTATTAAGGGATTAATAATCCCTCAATGTAAATATCTCTCACTTATTTAAA |  | 0.108 | 
42 | ACAGACGAAGGAGCCGCAAAGAACTTATTAAGGGATCAATAATCCCTCAATATAAATATCTCTCACTTATTTAAA |  | 0.27 | cleaved RNA product abundance [2]: 0.282

Row | Sequence | cleaved RNA product abundance [1] | cleaved RNA product abundance [3] | other results
43 | ACAGACGAAGGAGCCGCAAAGAAGTCATTAAGGCATGAATAATCCCTCAATATAAATATCTCTCACTTATTTAAA |  | 0.102 | 
44 | CGACATGTCCCGCTTCTTTCATTACTCCGTTAGCAACTGTTTTGCTATATACATTAACCTTTTAAGAGGAGGAAT | 1.36 |  | 
45 | CGACATGTCCCGCTTCTTTCATTATTCCCTTAGCAACTGTTTTGCTATATACATTTACCTTTTAAGAGGAGGAAT | 0.221 |  | 
46 | CGACATGTCCCGCTTCTTTCATTAATCCGTTATCAACTGTTTTGCTATATACAGTTACCTTTTAAGAGGAGGAAT | 0.286 |  | 
47 | CGACATGTCCCGCTTCTTTCATTAATCCGTCAGCAACTGTTTTGCTATATACATTTACCATTTAAGAGGAGGAAT | 0.704 |  | 
48 | ACAGACGAAGGAGCCGCAAAGTAGTTATTAAGGGATGAATAATCCCTCAATTTAAATATCTCTCACTTATTTAAA |  | 0.221 | 
49 | CGACATGTCCCGCTTCTTTCATTATTCCGTTAGCAACTGTTTTGCTATATACATTTTCCTTTTAAGAGGAGGAAT | 0.792 |  | 
50 | CGACATGTCCCGCTTCTTTCATTAATCCGTTTGCAACTGTTTTGCTATACACATTTACCTTTTAAGAGGAGGAAT | 0.386 |  | 
51 | CGACATGTCCCGCTTCTTTCATTAATCGGTTAGCAACTGTTTTGCTATCTACATTTACCTTTTAAGAGGAGGAAT | 0.132 |  | 
52 | CGACATGTCCCGCTTCTTTCATTAATCCGTTACCAACTGTTTTGCTATATACATTTTCCTTTTAAGAGGAGGAAT | 0.231 |  | 
53 | CGACATGTCCCGCTTCTTTCATTACTCCGTTAGCAACTGTTTAGCTATATACATTTACCTTTTAAGAGGAGGAAT | 0.694 |  | 
54 | ACAGACGAAGGAGCCGCAAAGAAGTTATAAAGGGATGAATAACCCCTCAATATAAATATCTCTCACTTATTTAAA |  | 0.261 | 
55 | ACAGACGAAGGAGCCGCAAAGAAGTTATTAAGGGATGAATAATCCCTCAATATAAATATCTCTCACTTTTTAAAG |  | 0.879 | 
56 | ACAGACGAAGGAGCCGCAAAGAAATTATTAGGGGATGAATAATCCCTCCATATAAATATCTCTCACTTATTTAAA |  |  | cleaved RNA product abundance [2]: 0.188
57 | ACAGACGAAGGAGCCGCAAAGAAGTTATTAAGGGATGAATAATCCATCAAAATAAATATCTCTCACTTATTTAAA |  | 0.221 | cleaved RNA product abundance [2]: 0.132
58 | ACAGACGAAGGAGCCGCAAAGAAGTTATTAAGCGATGAATAATCGCTCAATATAAATATCTCTCACTTATTTAAA |  | 0.726 | cleaved RNA product abundance [2]: 0.561
59 | ACAGACGAAGGAGCCGCAAATAAGTTATTAAGGGATGAATAATCCCACAATATAAATAACTCTCACTTATTTAAA |  | 0.22 | 
60 | ACAGACGAAGGAGCCGCAAAGAAGTTATTAAGGGATGAATAATCCCTCAATATAAATAACTCTCACTTATTTAAA |  | 0.849 | cleaved RNA product abundance [2]: 0.903; cleaved RNA product abundance [4]: 0.706
61 | ACAGACGAAGGAGCCGCAAAGGAGTTAATAAGGGATGAATAATCCCTCAATATAAATATCTCTCACTTATTTAAA |  | 0.436 | cleaved RNA product abundance [2]: 0.34
62 | CGACATGTCCCGCTTCTTTCATTAATCCGTTAGCAACTGTTTTGTTATATACATTTATCTTTTAAGAGGAGGAAT | 0.458 |  | 
